Data reported in article doi:10.1101/2024.01.14.575549v2 (bioRxiv, 2024).

What was measured:
[1] = system: human neuroblastoma SH-SY5Y cells; test: Aβ42 aggregates on SH-SY5Y cells with or without 1,6-hexanediol treatment; type: cell-based
[2] = Diffusion coefficient of free Aβ42 in solution by MDS; type: physicochemical; details: Stokes-Einstein equation from hydrodynamic radius measured by MDS
[3] = type: physicochemical
[4] = Susceptibility of Aβ42 condensates to 1,6-hexanediol and KCl in vitro; type: physicochemical; details: confocal microscopy

OCCCCCCO [HXD, 1,6-hexanediol, reference compound]
decrease of Aβ42 aggregate number normalised by total cell area, versus vehicle ([1]; SH-SY5Y cells, 2 μM Aβ42 monomer for 16 h, then 2.5% w/v 1,6-hexanediol): 30%

amyloid β1-42 [Aβ42]
diffusion coefficient of Aβ42 in solution [2]: 1.4 ± 0.1 × 10^−10 m^2s^−1 | timescale for the direct solution to amyloid fibril transition ([3]; estimated from Figure 6d (FCS, non-LLPS conditions)): 61 h | ΔG^‡LLPS, free energy barrier for monomeric to liquid transition ([3]; from t = 3 h, c = 2 μM): 33.5 kJ/mol | ΔG^‡LTS, free energy barrier for liquid to solid transition ([3]; from t = 21 h): 33.7 kJ/mol | response of mature Aβ42 condensates to 100% 1,6-hexanediol ([4]; condensates incubated 22 h on DMPC membrane, 100% (6 M) HXD): remained intact | response of Aβ42 condensates to 50% 1,6-hexanediol ([4]; condensates on lipid membrane, 50% HXD): dissolved | area of Aβ42 species at high cell densities ([1]; SH-SY5Y 40 000 cells/well, 2 μM monomer, 48 h incubation): < 50 µm^2
